Measured values reported in patent US7326418B2, “Identification of novel factors that block programmed cell death or apoptosis by targeting JNK” (University of Chicago, priority 2001, dated 2008).

Target: T1, GST-MKK7 (Homo sapiens, UniProt O14733, Q133P/Q94H)
T1 construct: made in house; host or cells: E. coli BL21
T1 sequence (O14733 1-401 Q94H/Q133P limits assumed): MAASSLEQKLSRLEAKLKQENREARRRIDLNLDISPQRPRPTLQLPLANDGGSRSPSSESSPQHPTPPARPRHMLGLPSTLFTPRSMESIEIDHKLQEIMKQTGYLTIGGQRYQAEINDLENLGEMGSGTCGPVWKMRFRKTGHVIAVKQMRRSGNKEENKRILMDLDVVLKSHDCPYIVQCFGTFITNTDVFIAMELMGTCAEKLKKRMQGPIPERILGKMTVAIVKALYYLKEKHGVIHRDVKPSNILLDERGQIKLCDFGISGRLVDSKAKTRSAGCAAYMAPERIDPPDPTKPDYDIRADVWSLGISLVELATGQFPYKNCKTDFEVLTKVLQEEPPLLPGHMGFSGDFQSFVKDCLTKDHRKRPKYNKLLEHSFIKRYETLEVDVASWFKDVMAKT
Experiment: In vitro pull-down with purified proteins: His6/T7-tagged proteins binding to GST-MKK7
Conditions: JIP1 used under non-saturating conditions, read-out: half maximum binding (HMB) value for binding to GST-MKK7
Text: Protein levels are shown (bottom). b, g, Coomassie brilliant blue staining (CS) showing purity of the proteins used in (c) and (d, e), respectively. c, In vitro pull-down assays with purified proteins showing direct interaction between His6/T7-Gadd45β (His6disclosed as SEQ ID NO: 46) and GST-MKK7. Precipitated GST proteins and bound His6/T7-tagged proteins(His6 disclosed as SEQ ID NO: 46) were visualized by CS and Western blotting (WB) with anti-T7 antibodies, respectively. Inputs of His6/T7-tagged proteins (His6 disclosed as SEQ ID NO: 46) are indicated. The fraction of His6/T7-Gadd45β (His6 disclosed as SEQ ID NO: 46) and His6/T7-JIP1 (His6 disclosed as SEQ ID NO: 46) binding to GST-MKK7 (expressed as arbitrary units [a.u.]; left) was calculated relatively to a standard curve generated with known protein concentrations^19. d, e, Kinase assays showing specific inhibition of active MKK7 by purified GST-Gadd45β and His6-Gadd45β (His6 disclosed as SEQ ID NO: 46), in vitro. […]
Interaction of endogenous Gadd45β and MKK7 was detected readily (FIG. 28a). […]
GST precipitations with in vitro-translated proteins or purified proteins (FIG. 26-30), and kinase assays were performed. […] MKK7 phosphorylation was monitored by performing immunoprecipitations with anti-P-MKK7 antibodies (developed at Cell Signaling) followed by Western blots with anti-total MKK7 antibodies. […]

B1: Gadd45β: purified recombinant His6-tagged Gadd45β protein; also used generically for the recombinant Gadd45β proteins (protein, UniProt O75293 1-160, looked up)
Growth arrest and DNA …: MTLEELVACDNAAQKMQTVTAAVEELLVAAQRQDRLTVGVYESAKLMNVDPDSVVLCLLAIDEEEEDDIALQIHFTLIQSFCCDNDINIVRVSGMQRLAQLLGEPAETQGTTEARDLHCLLVTNPHTDAWKSHGLVEVASYCEESRGNNQWVPYISLQER
modifications: His6 tag
notes: purified recombinant His6-tagged Gadd45β protein; also used generically for the recombinant Gadd45β proteins
With B1 the Kd was about 390 nM.
